B1: DARPin® protein #52 (designed binder)
chain: GSDLGDKLLHAAYYGQDDEVRILLAAGADVNAKDTQGLTPLHLAAAIGHLEIVEVLLKAGADVNAKDAYGETPLHLVASRGHLEIVEVLLKAGADVNAQDYSGRTPADLAAEYGHEDIAEVLQKLNGSPTPTPTTPTPTPTTPTPTPTGSDLGDKLLHAAYYGQDDEVRILLAAGADVNAKDTQGLTPLHLAAAIGHLEIVEVLLKAGADVNAKDAYGETPLHLVASRGHLEIVEVLLKAGADVNAQDYSGRTPADLAAEYGHEDIAEVLQKLN
notes: not shown: TAA-specific ankyrin repeat domain (localizer)
B2: DARPin® protein #55 (designed binder)
chain: GSDLGDKLLHAAYYGQDDEVRILLAAGADVNAKDTQGLTPLHLAAAIGHLEIVEVLLKAGADVNAKDAYGETPLHLVASRGHLEIVEVLLKAGADVNAQDYSGRTPADLAAEYGHEDIAEVLQKLNGSPTPTPTTPTPTPTTPTPTPTGSDLGDKLLHAAYYGQDDEVRILLAAGADVNAKDTQGLTPLHLAAAIGHLEIVEVLLKAGADVNAKDAYGETPLHLVASRGHLEIVEVLLKAGADVNAQDYSGRTPADLAAEYGHEDIAEVLQKLNGSPTPTPTTPTPTPTTPTPTPTGSDLGDKLLHAAYYGQDDEVRILLAAGADVNAKDTQGLTPLHLAAAIGHLEIVEVLLKAGADVNAKDAYGETPLHLVASRGHLEIVEVLLKAGADVNAQDYSGRTPADLAAEYGHEDIAEVLQKLN
notes: as for B1
B3: DARPin® protein #51 (designed binder)
chain: GSDLGQKLLKAAQEGQDDEVRELLKAGADVNAKDLRGITPLHVAAWQGHLEIVEVLLKAGADVNAKDSKGETPLHLAAFRGHLEIVEVLLKAGADVNAQDQQGETPADLAALAGHVDIAEVLQKLNGSPTPTPTTPTPTPTTPTPTPTGSDLGQKLLKAAQEGQDDEVRELLKAGADVNAKDLRGITPLHVAAWQGHLEIVEVLLKAGADVNAKDSKGETPLHLAAFRGHLEIVEVLLKAGADVNAQDQQGETPADLAALAGHVDIAEVLQKLN
notes: as for B1

Tests used:
[1] = target: T1, cell membrane-bound human 4-1BB (endogenous, on ionomycin/PMA stimulated CCRF-CEM cells or primary CD8+ T … (human, UniProt Q07011 24-255)); assay: flow cytometry on PMA/ionomycin stimulated CEM cells, anti-penta-His Alexa Fluor-488 detection
T1 construct: also called cell membrane-expressed human 4-1 BB; 4-1BB on CEM cells
Protocol: Assay setup: Ankyrin repeat protein binding to cell membrane-bound human 4-1 BB on cells was measured by flow cytometry using the T lymphoblast cell line CCRF-CEM (ATCC® CCL-119™) stimulated with ionomcycin/PMA (phorbol 12-myristate 13-acetate) to express 4-1 BB. CEM cells cultured in RPMI medium supplemented with 10% (v/v) FBS+1% PenStrep were harvested and stimulated overnight in 96-well U-bottom plates using the same medium plus PMA (10 ng/ml) and ionomycin (500 ng/ml). […] Stimulated CEM cells were harvested, then 30,000 cells were incubated with increasing concentrations of His-tagged ankyrin repeat proteins in FACS buffer (PBS+2% (v/v) FBS+0.1% sodium azide) for 30 minutes on ice. […] After washing with PBS, cells were stained with Live/Dead Aqua dye (Thermo Fisher, No. L34957) and analyzed using a BD FACS Canto II or AttuneNxT cytometer.
The multivalent ankyrin repeat proteins were tested, together with binding proteins comprising only one corresponding 4-1 BB-specific ankyrin repeat domain (with our without a linked localizer), for binding to PMA/ionomycin stimulated CEM cells.

[2] = target: T2, biotinylated human 4-1BB (recombinant Fc fusion protein of the extracellular domain of human 4-1BB) (human, UniProt Q07011 24-186, biotinylated (site not stated)); assay: SPR; accurate fit not possible due to slow off-rate
T2 construct: Bought from BPS Bioscience; tie to the Fc fusion is by the Materials paragraph; also called h4-1BB; CD137; not shown: Fc part of the purchased fusion (BPS Bioscience)

T1 sequence (Q07011 24-255 limits assumed): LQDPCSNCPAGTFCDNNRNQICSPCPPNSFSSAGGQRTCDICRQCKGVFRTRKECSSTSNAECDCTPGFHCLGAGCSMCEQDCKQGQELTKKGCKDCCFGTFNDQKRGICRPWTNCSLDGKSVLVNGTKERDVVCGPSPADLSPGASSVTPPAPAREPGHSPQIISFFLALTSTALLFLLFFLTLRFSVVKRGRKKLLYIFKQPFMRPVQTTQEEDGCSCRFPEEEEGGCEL

| Binder | EC50 (read off the curve) [1] [nM] | Kd [2] [nM] |
| --- | --- | --- |
| B1 | ~8 |  |
| B2 | ~7 |  |
| B3 |  | < 0.02 |
